The target of the data set is T1, MBP-CsTBH (TINY BRANCHED HAIR, HD-ZIP) (Cucumis sativus, UniProt A0A0A0LED8 1-240).
T1 sequence: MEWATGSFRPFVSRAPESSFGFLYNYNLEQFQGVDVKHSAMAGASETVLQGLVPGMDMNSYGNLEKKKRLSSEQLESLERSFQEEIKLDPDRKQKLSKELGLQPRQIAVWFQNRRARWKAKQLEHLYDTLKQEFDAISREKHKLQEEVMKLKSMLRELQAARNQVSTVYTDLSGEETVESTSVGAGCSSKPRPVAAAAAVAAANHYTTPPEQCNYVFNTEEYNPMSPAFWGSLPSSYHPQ
Nature of the data set: EMSA; EMSA kit (Beyotime GS009) reaction buffer, room temperature, 6% native PAGE; salt and pH not stated. Conditions: protein: recombinant; chain copies: 2; blunt. Background: In EMSA bound probe runs differently from free probe, usually more slowly.

B1: Cs4CL promoter probe (dsDNA)
DNA 1: CTTCCAAATTAATTATTGTTTTATGCAAA
DNA 2: TTTGCATAAAACAATAATTAATTTGGAAG
Turning to B1, the binding result was “binds”.

B2: CsFLS promoter probe (dsDNA)
DNA 1: AATTTAAAATAATTATTGGGATTTCAAAC
DNA 2: GTTTGAAATCCCAATAATTATTTTAAATT
In the case of B2, the binding result is given as “binds”.

B3: CsF3H promoter probe (dsDNA)
DNA 1: GATTTGAGAAAATTATTGGGCTGGATTGT
DNA 2: ACAATCCAGCCCAATAATTTTCTCAAATC
Consider B3, for which the binding result is listed as “binds”.

The values above are taken from PMC10400037, “Novel players in organogenesis and flavonoid biosynthesis in cucumber glandular trichomes”.
